The values that follow come from patent US20190023791A1 (GlaxoSmithKline, published 2019).

What is called EC50 is the concentration at which the effect is half-maximal. What is called Kd is the equilibrium constant for the complex coming apart.

In experiment [1] the target is T1, human OX40 on cells (activated human CD4+ T cells, stimulated PBMC, lymphocytes in whole blood) (human, UniProt P43489 29-277).
T1 sequence (looked up): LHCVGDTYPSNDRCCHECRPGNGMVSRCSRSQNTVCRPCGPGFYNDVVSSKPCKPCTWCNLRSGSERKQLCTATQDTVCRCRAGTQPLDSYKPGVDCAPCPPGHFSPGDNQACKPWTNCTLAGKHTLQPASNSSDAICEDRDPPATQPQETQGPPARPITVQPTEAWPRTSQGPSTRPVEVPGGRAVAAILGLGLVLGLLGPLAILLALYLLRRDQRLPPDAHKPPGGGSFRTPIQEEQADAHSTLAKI
The experiment can be described thus: cell-based or functional assay.

Experiment [2] concerns the target T2, cynomolgus monkey OX40 on cells (activated cynomolgus monkey CD4+ T cells, OX40+ cells in peripheral blood) (cynomolgus monkey). The experiment can be described thus: cell-based or functional assay.
Experiment [3] addresses T1, human OX40 on cells (activated human …). In words: unstimulated human whole-blood binding assay, lymphocytes.
Experiment [4] deals with T3, recombinant OX40 extracellular domain from cynomolgus monkeys (cynomolgus monkey).
T3 construct: extracellular domain; also called cynomolgus monkey OX40
In words: binding to recombinant OX40 extracellular domain, method not stated.

Experiment [5] has as its target T1, human OX40 on cells (activated human …). The experiment can be described thus: binding to activated human CD4+ T cells; activated human CD4+ T cells.
For experiment [6] the target is unchanged. The experiment can be described thus: binding to stimulated human PBMC; stimulated human PBMC; lower end of range.
Experiment [7] shares this target. The experiment can be described thus: binding to stimulated human PBMC; stimulated human PBMC; upper end of range.
Experiment [8] has as its target T2, cynomolgus monkey OX40 on cells …. In words: binding to activated cynomolgus monkey CD4+ T cells; activated cynomolgus monkey CD4+ T cells.
Experiment [9] has as its target T4, recombinant OX40 extracellular domain from humans (human, UniProt P43489 29-214).
T4 construct: extracellular domain; also called human OX40; hOX40
T4 sequence (looked up): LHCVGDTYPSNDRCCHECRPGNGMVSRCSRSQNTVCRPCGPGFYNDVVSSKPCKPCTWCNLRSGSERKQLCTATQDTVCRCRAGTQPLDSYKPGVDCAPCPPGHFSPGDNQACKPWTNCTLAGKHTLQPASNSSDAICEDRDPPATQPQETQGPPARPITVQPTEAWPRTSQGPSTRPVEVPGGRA
In words: binding to recombinant OX40 extracellular domain, method not stated; recombinant human OX40 extracellular domain.

Values joined by “and” are separate entries in the source; they are usually repeats but may differ in a detail not shown here. Equal values may be shown once.

B1: ANTIBODY 106-222 (antibody, human IgG1, kappa, V domains shown)
VH: QVQLVQSGSELKKPGASVKVSCKASGYTFTDYSMHWVRQAPGQGLKWMGWINTETGEPTYADDFKGRFVFSLDTSVSTAYLQISSLKAEDTAVYYCANPYYDYVSYYAMDYWGQGTTVTVSS
VL: DIQMTQSPSSLSASVGDRVTITCKASQDVSTAVAWYQQKPGKAPKLLIYSASYLYTGVPSRFSGSGSGTDFTFTISSLQPEDIATYYCQQHYSTPRTFGQGTKLEIKR
notes: also called humanized wild-type IgG1 anti-OX40 agonistic mAb
In the case of B1, in experiment [1], the “anti-CD3 induced proliferation of activated human CD4+ T cells, mean EC50” value was 0.19 µg/mL and 1.3 nM. Also, the “proliferation of immobilized anti-CD3 activated cynomolgus monkey CD4+ T cells, mean EC50” value in experiment [2] was 0.72 µg/mL and 4.8 nM. The EC50 was 1.45 mg/L in [3]; 0.3 mg/L in experiment [5]; ≥ 0.1 mg/L in experiment [6]; ≤ 0.3 mg/L in experiment [7]; 0.35 mg/L in experiment [8]. For the same molecule, the Kd in experiment [4] was 0.408 µM; in experiment [9], 0.0049 µM.
